No end group written: not given here.

The chains are these.
T1: His-tagged P3028 (human, not fully specified)
T1 construct: the tag is put first after 'PGE73=His-tag-P3028'; also called PGE73; not shown: His-tag
T1 peptide: {His‑tag}-VFDEFKPLVEEPQNLIK

B1: P28R F13R (peptide)
peptide: KKLDTFFVKLSLRTER
B2: P28R K1H (peptide)
peptide: HKLDTFFVKLSLFTER
B3: P28R K2R (peptide)
peptide: KRLDTFFVKLSLFTER
B4: P28R K1W (peptide)
peptide: WKLDTFFVKLSLFTER
B5: P28R K9T (peptide)
peptide: KKLDTFFVTLSLFTER
B6: P28R K9I (peptide)
peptide: KKLDTFFVILSLFTER
B7: P28R K2L (peptide)
peptide: KLLDTFFVKLSLFTER
B8: P28R K1R (peptide)
peptide: RKLDTFFVKLSLFTER
B9: P28R K1L (peptide)
peptide: LKLDTFFVKLSLFTER
B10: P28R L3K (peptide)
peptide: KKKDTFFVKLSLFTER
B11: P28R K2D (peptide)
peptide: KDLDTFFVKLSLFTER
B12: P28R K9L (peptide)
peptide: KKLDTFFVLLSLFTER
B13: P28R K1N (peptide)
peptide: NKLDTFFVKLSLFTER
B14: P28R K1E (peptide)
peptide: EKLDTFFVKLSLFTER
B15: P28R L3N (peptide)
peptide: KKNDTFFVKLSLFTER
B16: P28R L3F (peptide)
peptide: KKFDTFFVKLSLFTER
B17: P28R L3I (peptide)
peptide: KKIDTFFVKLSLFTER
B18: P28R K1S (peptide)
peptide: SKLDTFFVKLSLFTER
B19: P28R K2E (peptide)
peptide: KELDTFFVKLSLFTER
B20: P28R K1A (peptide)
peptide: AKLDTFFVKLSLFTER
B21: P28R K2H (peptide)
peptide: KHLDTFFVKLSLFTER
B22: P28R K2S (peptide)
peptide: KSLDTFFVKLSLFTER
B23: P28R L3M (peptide)
peptide: KKMDTFFVKLSLFTER
B24: P28R L3E (peptide)
peptide: KKEDTFFVKLSLFTER
B25: P28R K2Q (peptide)
peptide: KQLDTFFVKLSLFTER
B26: P28R K9W (peptide)
peptide: KKLDTFFVWLSLFTER
B27: P28R F13T (peptide)
peptide: KKLDTFFVKLSLTTER
B28: P28R L3R (peptide)
peptide: KKRDTFFVKLSLFTER
B29: P28R K9E (peptide)
peptide: KKLDTFFVELSLFTER
B30: P28R K9V (peptide)
peptide: KKLDTFFVVLSLFTER
B31: P28R K2Y (peptide)
peptide: KYLDTFFVKLSLFTER
B32: P28R K9R (peptide)
peptide: KKLDTFFVRLSLFTER
B33: P28R K9S (peptide)
peptide: KKLDTFFVSLSLFTER
B34: P28R K9F (peptide)
peptide: KKLDTFFVFLSLFTER
B35: P28R L3A (peptide)
peptide: KKADTFFVKLSLFTER
B36: P28R K1I (peptide)
peptide: IKLDTFFVKLSLFTER
B37: P28R K9H (peptide)
peptide: KKLDTFFVHLSLFTER
B38: P28R K2I (peptide)
peptide: KILDTFFVKLSLFTER
B39: P28R K2F (peptide)
peptide: KFLDTFFVKLSLFTER
B40: P28R F13V (peptide)
peptide: KKLDTFFVKLSLVTER
B41: P28R K9Q (peptide)
peptide: KKLDTFFVQLSLFTER
B42: P28R K9D (peptide)
peptide: KKLDTFFVDLSLFTER
B43: P28R K2N (peptide)
peptide: KNLDTFFVKLSLFTER
B44: P28R K9N (peptide)
peptide: KKLDTFFVNLSLFTER
B45: P28R F13S (peptide)
peptide: KKLDTFFVKLSLSTER
B46: P28R K9Y (peptide)
peptide: KKLDTFFVYLSLFTER
B47: P28R L3H (peptide)
peptide: KKHDTFFVKLSLFTER
B48: P28R K1Q (peptide)
peptide: QKLDTFFVKLSLFTER
B49: P28R K9A (peptide)
peptide: KKLDTFFVALSLFTER
B50: P28R K2V (peptide)
peptide: KVLDTFFVKLSLFTER
B51: P28R K2M (peptide)
peptide: KMLDTFFVKLSLFTER
B52: P28R K1F (peptide)
peptide: FKLDTFFVKLSLFTER
B53: P28R K1T (peptide)
peptide: TKLDTFFVKLSLFTER
B54: P28R L3D (peptide)
peptide: KKDDTFFVKLSLFTER
B55: P28R K2W (peptide)
peptide: KWLDTFFVKLSLFTER
B56: P28R F13Y (peptide)
peptide: KKLDTFFVKLSLYTER
B57: P28R K2T (peptide)
peptide: KTLDTFFVKLSLFTER
B58: P28R K1Y (peptide)
peptide: YKLDTFFVKLSLFTER
B59: P28R F13W (peptide)
peptide: KKLDTFFVKLSLWTER
B60: P28R K9M (peptide)
peptide: KKLDTFFVMLSLFTER
B61: P28R L3Q (peptide)
peptide: KKQDTFFVKLSLFTER
B62: P28R K1D (peptide)
peptide: DKLDTFFVKLSLFTER
B63: P28R K2A (peptide)
peptide: KALDTFFVKLSLFTER
B64: P28R K1V (peptide)
peptide: VKLDTFFVKLSLFTER
B65: P28R K1M (peptide)
peptide: MKLDTFFVKLSLFTER

In this experiment the target is T1, His-tagged P3028. Kind of experiment: chip ELISA. Background: In an ELISA, binding on a coated surface is turned into a signal by an enzyme label.
Molecule B1 had an ELISA signal of 502.

Take B2: the ELISA signal is 428.

As to B3, the ELISA signal came out at 417.

The molecule B4 gave an ELISA signal of 284.

B5: the ELISA signal was determined as 347.

B6 returned an ELISA signal of 190.

Molecule B7 returned an ELISA signal of 343.

B8 displayed an ELISA signal of 523.

Molecule B9 displayed an ELISA signal of 449.

In turn, B10 returned an ELISA signal of 386.

In turn, B11 yielded an ELISA signal of 335.

Regarding B12, the ELISA signal turned out to be 166.

Molecule B13 had an ELISA signal of 445.

On to B14, for which the ELISA signal was determined as 396.

B15 gave an ELISA signal of 374.

Take B16: the ELISA signal is 393.

Regarding B17, the ELISA signal is 454.

B18 came in with an ELISA signal of 344.

As to B19, the ELISA signal was 349.

B20: the ELISA signal was found to be 466.

The molecule B21 registered an ELISA signal of 394.

In turn, B22 gave an ELISA signal of 281.

As to B23, the ELISA signal turned out to be 460.

B24 showed an ELISA signal of 528.

Molecule B25 registered an ELISA signal of 350.

On to B26, for which the ELISA signal amounted to 245.

With B27, the ELISA signal was 494.

As to B28, the ELISA signal turned out to be 370.

Turning to B29, the ELISA signal was 240.

As for B30, the ELISA signal came to 248.

For the molecule B31, the ELISA signal was 301.

B32: the ELISA signal was 374.

B33 registered an ELISA signal of 274.

B34 yielded an ELISA signal of 174.

B35 yielded an ELISA signal of 427.

B36 gave an ELISA signal of 483.

In the case of B37, the ELISA signal is 306.

The molecule B38 came in with an ELISA signal of 331.

Consider B39, for which the ELISA signal was 390.

Regarding B40, the ELISA signal is 446.

B41 showed an ELISA signal of 330.

For B42, the ELISA signal was 149.

For the molecule B43, the ELISA signal amounted to 432.

The molecule B44 registered an ELISA signal of 256.

B45 had an ELISA signal of 635.

B46 gave an ELISA signal of 198.

In turn, B47 gave an ELISA signal of 477.

Molecule B48 registered an ELISA signal of 455.

The molecule B49 displayed an ELISA signal of 191.

Molecule B50 displayed an ELISA signal of 317.

Consider B51, for which the ELISA signal is 400.

For B52, the ELISA signal is 332.

B53 had an ELISA signal of 493.

In turn, B54 displayed an ELISA signal of 492.

In the case of B55, the ELISA signal was found to be 304.

As to B56, the ELISA signal came to 291.

Take B57: the ELISA signal is 331.

In turn, B58 showed an ELISA signal of 315.

B59 gave an ELISA signal of 430.

As for B60, the ELISA signal turned out to be 283.

B61 showed an ELISA signal of 473.

B62 came in with an ELISA signal of 373.

In turn, B63 came in with an ELISA signal of 309.

Take B64: the ELISA signal worked out at 442.

For the molecule B65, the ELISA signal was 457.

For the origin of these results see patent US20170298096A1 (CANIMGUIDE THERAPEUTICS, published 2017).
